The record followed here is PMC4268634.

Test in all cases: SPR
Assay [1] addresses Z_(VEGFR2_22)-(S4G)4-ABD035-(S4G)4-Z_(VEGFR2_40).
For assay [2], the target named is Z_(VEGFR2_40)-(S4G)4-ABD035-(S4G)4-Z_(VEGFR2_22).
In assay [3] the target is Z_(VEGFR2_40)-(S4G)4-ABD035-(S4G)4-Z_(VEGFR2_40).

In general, koff refers to a measure of how fast the partners let go of each other. Low values mean slow dissociation, high ones fast dissociation.

Consider “murine VEGFR2 (Sino Biological) (from UniProt P35918 20-762) (receptor)”, for which the koff in assay [1] came out at 0.00014 s⁻¹; in assay [2], 0.00018 s⁻¹; in assay [3], 0.00079 s⁻¹.
